The text below walks through data of the DeepSol protein solubility set.

This series can be described thus: soluble on expression in E. coli; label from the status in PepcDB or PDB records.
As to “MRLDLSAKFRQVLGLAKDHASIGRAIVQNYNEKAFFDIEVAVVRATSHDDCPVDDKTMHEILFLVSNTPGSIPFLAEQISRRLAKTRDCLVAGKTLLLFHRLLRGSSRSIEQQLHIAHTSGHLQIGCSWFMMSLDSRSFVFLQNYVAYLQERVGWIINQAGKLEPVMSGGTKFSRYKEKSMDLVFHILPKCQEFIAQVLKCSPVDAWPIDNLVQAATGNILKESFQVYMTYSDGMTALVSMLFDLSRPARDLACGMLRKASQQIQDLRILYDKCRGFAGMKSLDYPSVQAISMDHIVALEECSSYGGKRGFSLSTNLRDAITCNELKQEQHSASFSSTSPFSLPVETKISMVWVVFDNEDGEESDKQTEKAYER”, the “soluble on expression in E. coli” value is listed as “soluble”.
As for “MQNLSSTQREILLALVDLYNRYKRMIKSKEVADVIGKDEGTVRNIILSLKVLGLIESKPGPNGGYVPTLKAYESIKNPIITPVFDQISLYKDGLETDIKISNIELLDITNPSGNKVLLRVNGDLRKLKVGDSIKIGPIPYTRLVIEGVVIHIDDTRKELIADVTRMISIPKVQIKSLISKKLVALKPDMTLKEASQIFYKEGIRGAPVLDNEGKTLGILTTADIIKAFFEGKYDAKVSEYMKSNVISIRDEDDILTAIKKMLIYNVGRLLVYNQDQKVIGIVTRTDILKTIAGLEELITP”, the entry is “soluble”.
For “MAHHHHHHHRSAAGTIWEFDGGACGARTALVKVDRVDRRYQDLVTRGFNGRFRGRPDVVYVVHTADQVVDAVNQAMAAGQRIAVRSGGHCFEGFVDDPAVRAVIDMSQMRQVFYDSGKRAFAVEPGATLGETYRALYLDWGVTIPAGVCPQVGVGGHVLGGGYGPLSRRDGVVADHLYAVEVVVVDASGRARKVVATSAADDPNRELWWAHTGGGGGNFGIVTRYWFRTPGATGTDPSQLLPKAPTSTLRHIVTWDWSALTEEAFTRIIDNHGAWHQSNSAAGTPYASMHSVFYLNSRAAGQILLDIQIDGGLDGAEALLNDFVAAVNEGTGVEPAVQRSTEPWLRATLANKFDTGGFDRTKSKGAYLRKPWTAAQAATLYRHLSADSQVWGEVSLYSYGGKVNSVPETATATAQRDSIIKVWMSATWMDPAHDDANLAWIREIYREIFATTGGVPVPDDRTEGTFINYPDVDLVDERWNTSGVPWYTLYYKGNYPRLQKVKARWDPRDVFRHALSVRPPG”, the “soluble on expression in E. coli” value is recorded as “soluble”.
As for “GHRIARKVTDVWEITGPSSEDAIEVARWNPFTKEHEHFMEKSVAIAEIGKLVGLTKDEVLAEIERRKLVLLWMAKSGIRRYREVAPIIFKYYYSPDDVYERAAKELKTELI”, the entry is “not soluble”; as for “MSTRSARIVVVSSRAAAGVYTDDCGPIIAGWLEQHGFSSVQPQVVADGNPVGEALHDAVNAGVDVIITSGGTGISPTDTTPEHTVAVLDYVIPGLADAIRRSGLPKVPTSVLSRGVCGVAGRTLIINLPGSPGGVRDGLGVLADVLDHALEQIAGGDHPR”, “soluble”; as for “MGSSHHHHHHSSGLVPRGSHMALSRGLPRELAEAVAGGRVLVVGAGGIGCELLKNLVLTGFSHIDLIDLDTIDVSNLNRQFLFQKKHVGRSKAQVAKESVLQFYPKANIVAYHDSIMNPDYNVEFFRQFILVMNALDNRAARNHVNRMCLAADVPLIESGTAGYLGQVTTIKKGVTECYECHPKPTQRTFPGCTIRNTPSEPIHCIVWAKYLFNQLFGEEDADQEVSPDRADPEAAWEPTEAEARARACNEDGDIKRISTKEWAKSTGYDPVKLFTKLFKDDIRYLLTMDKLWRKRKPPVPLDWAEVQSQGEETNASDQQNEPQLGLKDQQVLDVKSYARLFSKSIETLRVHLAEKGDGAELIWDKDDPSAMDFVTSAANLRMHIFSMNMKSRFDIKSMAGNIIPAIATTNAVIAGLIVLEGLKILSGKIDQCRTIFLNKQPNPRKKLLVPCALDPPNPNCYVCASKPEVTVRLNVHKVTVLTLQDKIVKEKFAMVAPDVQIEDGKGTILISSEEGETEANNHKKLSEFGIRNGSRLQADDFLQDYTLLINILHSEDLGKDVEFEVVGDAPEKVGPKQAEDAAKSITNGSDDGAQPSTSTAQEQDDVLIVDSDEEDSSNNADVSEEERSRKRKLDEKENLSAKRSRIEQKEELDDVIALD”, “soluble”.
As for “APYRMAYIKKDPVDDARGSTNPFVRIPELSDEDGLIVARGEYVYCLLNLFPYNSGHMMVVPYRQEPNLEDLTAEEISELFAFGQAAIKVVKSVSRPDAINVGFNLGRASGGSVGEHLHMHIVPRWSGDANFMTVIDGTKVLPQLLRKTRSLLAQAWNDMDG”, the entry is “not soluble”; as for “MTSSDKSLSHDVFVYGSFQEPSVVNLILECSPVMVPAQLHGYHVYRLKGRLHACISPSENGLINGKILTGLTDSQLENLDMIEGSEYVRKTVEVVLTDTSEKKQVETYVWANKDDPNLYGEWDFEEWRRLHMDKFIEASTKFIEWKKNPDGRSREEFEKFVFDDPPTAA”, “soluble”; as for “MLNKVFIIGRLTGDPVITYLPSGTPVVEFTLAYNRRYKNQNGEFQEESHFFDVKAYGKMAEDWATRFSKGYLVLVEGRLSQEKWEKEGKKFSKVRIIAENVRLINRPKGAELQAEEEEEVPPIEEEIEKLGKEEEKPFTDEEDEIPF”, “soluble”.
As for “MGSDKIHHHHHHMSHVSLKDVQVLAPNFKRRLSGVTSTIVQLIPVQNRLGQKVGTIGPGLPPHLPHVRFRDLWRLWQNGPSGGPRIWHARRNLEMLPGIFMRDVLRMKVKLLFTSAAQRRHSAYTRFLISKMDAVVATSTRSGSFLEVPHRVVMHGVDTELFHPATGPEDTIAATGLPGHYLLGCFGRVRHQKGTDLFVRAMIELLPHYPQWTAVVSGRVTAEHKAFGDTLKADVAAAGLTDRIIFQGEVDDIKPWYRRLTLYVAPSRNEGFGLTPLEAMASETAVVASNAGAYEEMIVTGETGWVVGAGDYASLRDAIKTYLADPALAKAHASAGLAHVRSTFPLEKEATCLGEVYEALQRG”, the entry is “not soluble”.
Regarding “MAPTVERKNINLAPLKAAGVPIFFIVGGPGSGKGTQCDKIVAKYGLTHLSSGDLLRDEVKSGSPRGAQLTAIMESGALVPLEVVLDLVKEAMLKAIEKGSKGFLIDGYPREVAQGQQFESEIQEAKLVLFFDVAEETLVKRLLHRAQTSGRADDNADTIKKRLHTFVTSTAPVVDYYESKGKLVRINAEGSVDDIFAVVVANLDKATSKL”, the “soluble on expression in E. coli” value was “soluble”.
With “MSEAVKLDVGGTIFKTSKSTLTKFDGFFRTMLGSGIGLNVDESGCIFIDRSPKHFDLILNFMRDGCLALPKNERDLTELMAEAQYYLLDGLIDRLASSNWSVESDEKTINVAKRLPILENNSQFLQVLCNQEKPILLIVVMASRDHFFPNMSIPDGFNAYKFVEKYSHQFHIYFMSTFVAQFLTIRVKRNNKIVYLKRAAYVSSGQQE”, the “soluble on expression in E. coli” value is “not soluble”.
As for “MSASLAILTIGVVPMSEVLPLLTEYIDEQHITHHSLLGKMSREDVMADYAVEPGDDPLLTLLNDNQIAHVSRQKVERDLQSVVEVLDNQGYDVIILMSTAAIKSMAARNSILLEPLRIIPPLVASIVDGHQVGVIVPVAELLAAQEKKWQVLQMPPVYSLANPVHGSEQQLIDAGQALLDQGADVIMLDCLGFHQRHRDILQQALDVPVLLSNVLIARLASELLV”, the entry is “not soluble”.
As for “MPAYKYNRVFLIVMDSVGIGEAPDAADFNDEGAHTLGHIAEHMNGLHMPNMAKLGLGLIEDIKGVEKTEHPLAYYGKLQEASNGKDTMTGHWEIMGLYIDKPFKVFPEGFPDELLQELEKRSGRKIIGNKPASGTAILDELGQEHMETGALIVYTSADSVLQIAAHEEVVPLEELYRICETARELTLDPKYMVGRIIARPFVGEPGQFKRTPNRHDYALKPFDRTVMNELKDCGLDVISIGKISDIYDGEGITSSRRTVSNMDGMDKVIDTLGEDFTGLSFANLVDFDALFGHRRDPEGYGRALEEFDARLPEVFGKMREDDLLIITADHGNDPIHHGTDHTREYVPILAYSKKHKKAQMLPLADTFADIGATIADNFQTNKPKYGKSFLSLLQ”, the entry is “not soluble”.
As for “MIERYSRPEMSAIWTDENRFQAWLEVEILACEAWAELGVIPKEDVKVMRENASFDINRILEIEKDTRHDVVAFTRAVSESLGEERKWVHYGLTSTDVVDTALSYLLKQANDILLKDLERFVDIIKEKAKEHKYTVMMGRTHGVHAEPTTFGLKLALWHEEMKRNLERFKQAKAGIEVGKISGAVGTYANIDPFVEQYVCEKLGLKAAPISTQTLQRDRHADYMATLALIATSIEKFAVEIRGLQKSETREVEEFFAKGQKGSSAMPHKRNPIGSENMTGMARVIRGYMMTAYENVPLWHERDISHSSAERIILPDATIALNYMLNRFSNIVKNLTVFPENMKRNMDRTLGLIYSQRVLLALIDTGLTREEAYDTVQPKAMEAWEKQVPFRELVEAEEKITSRLSPEKIADCFDYNYHLKNVDLIFERLGLA”, the entry is “soluble”; as for “MASGILVNVKEEVTCPICLELLTQPLSLDCGHSFCQACLTANHKKSMLDKGESSCPVCRISYQPENIRPNRHVANIVEKLREVKLSPEGQKVDHCARHGEKLLLFCQEDGKVICWLCERSQEHRGHHTFLTEEVAREYQVKLQAALEMLRQKQQEAEELEADIREEKASWKTQIQYDKTNVLADFEQLRDILDWEESNELQNLEKEEEDILKSLTNSETEMVQQTQSLRELISDLEHRLQGSVMELLQGVDGVIKRTENVTLKKPETFPKNQRRVFRAPDLKGMLEVFRELTDVRRYWGKEKSHYHKPPCGLSLLLSLSFRILCSLLGSCFKIYDSPSKTHITYPSL”, “soluble”; as for “MRQATRKGLMTMAAATGVIAAAGGAAHADSGAHGTSSGSPGVLSGNTVQAPVHVPVNVCGNTVDVVGVLNPAMGNACANQGGGASGGHGGHGGHGGYGDSGGEGGSHGGSHAGGHATDSPGVGSGNHVEVPIDVPVNVCGNSIDVVGALNPTTGNDCGNGGGGDHSTPPGDHETPPGEPHNPGNPGNPDTPDKPSGPDDETPGDSTDGNRPGAQTVDQPRGDAALAETGSDLPLGLALPVGAGALLAGTVLYRKARASVLEHHHHHH”, “not soluble”.
On to “MGSDKIHHHHHHMSFISKGAKIGENLKIGRNVVIEDGVVIGNNVMIGHNVVIRDGTIVGDNCVIFDGTVLGKLPFKSAISAVTEEKEFPPLKIGNGVTIGANCVIYRGSVLEDFVFVGDLVVIREDVKIGPYTVIGKGVTVENRTTIGRYVKIETNAYITALSTIEDYCFIAPEVTFTNDNFLGRTEERKKFFKGPTLKKGARIGANATILPGVVVGEDALVAAGSVVTRDVPDRKIVMGIPARVVRDVPEEQLLDNQSYYKEESS”, for which the “soluble on expression in E. coli” value is “not soluble”.
As for “MTTTPTLEVYLQPEQLKAALRKDATVGLTSNPKWLPPKYFYDARGSELFEQITALPEYFPTRTERELLRRYSGEIAEVTAPEILVELGSGSSEKTRLLLGAATRHGSLHTYVPQDVSVSALEGAAEQIGVEFPHLTVRGVVSDFTESLHHLPRGGRRTIAFLGGTLGNMVPAERAEFLSGIADVLEPGEHLLLGVGLVIDPAVLVPAYDDAAGVTAQFNRNVLQVLNTQLDADFPVDEFRHVALWDADNEWIEMRLEAERAMSIRVGELDLDVEFTAGEQLRTEISAKFTLDGIRRELAEAGFDVERTWTDPDDRFALVCAARN”, the entry is “soluble”.
As for “MAHHHHHHMCLLIIEHLFYSPCTVTTVLSLKLFGGGEKTGKMSDVPKSQVGTDAKVAVAKKYTGEYYVKGMVGDKKSFAIEHSRGRQKKHTVNEFCVGDAIGRGAFAEVFQCWRPEEPHIVYAMKKIRKDLIVKRKQSLNVHTERDLLSDAKLRQKRVSCPWITDLVVAFQDQDFLYIVTEYCSGGDLISWLIRYDVFPEETARFYFVELVLALNALHKMGYVHRDVKPDNVLIDREGHVKLADFGLSKRDPDQAESTSVADDSYLTEDVTVDDDVKKRFRDKKERKVMFFSTVGSPAYIAPEVLIGRGYDYSCDWWSAGVILYEMIFGYPPFFNDNNTATAKKIIQFKEHLEFPKDQTTVSKEAIDLISHLIADSKERYGFEEIIRHPFCKGVPLTDSIRNEKAPFSVELNSPRDLQYFEPAPDNADIQKQPMTAVSREDQSVFVGFTSKLCDRNQSTTWSRALGRFHELQNFSDDD”, the entry is “not soluble”.
